Square brackets hold non-standard residues; d marks the D form. Side chains are listed from the residue outwards. Ends that are not written are not given here. * marks the point of attachment. 1‑phenylbutyric acid = 1-phenylbutyric acid (N-terminal acyl cap); D‑di‑Glu = D-di-Glu linker between Lys side chain and DOTA; DOTA = O=C(O)CN1CCN(CC(=O)O)CCN(CC(=O)*)CCN(CC(=O)O)CC1; Ahx = NCCCCCC(=O)O
B1: DOTA-MC1RL (unlabeled) (peptide)
peptide: H[dF]RWGK([Ahx-DOTA])-NH2
modifications: not fully specified (N-terminus)
notes: also called MC1RL-DOTA; DOTA labeled conjugate of the MC1R specific ligand
B2: ^67/69Ga-DOTA-MC1RL (peptide)
peptide: H[dF]RWGK([Ahx-DOTA])-NH2
modifications: not fully specified (N-terminus); also: nonradioactive 67/69Ga chelated by DOTA
notes: Nonradioactive surrogate of the ^68Ga PET agent
B3: ^139La-DOTA-MC1RL (peptide)
peptide: H[dF]RWGK([Ahx-DOTA])-NH2
modifications: not fully specified (N-terminus); also: 139La chelated by DOTA
notes: Nonradioactive surrogate of ^225Ac-DOTA-MC1RL; also called cold agent
B4: MC1RL linked through aminohexanoic acid (Ahx) to DOTA:^152Eu (peptide)
peptide: {1‑phenylbutyric acid}-H[dF]RWGK([Ahx-DOTA])-NH2
modifications: also: 152Eu chelate
notes: also called 1-Phenylbutyric acid-His(D)Phe-Arg-Trp-Gly-Lys(Ahx-DOTA)-CONH2, Eu chelate
B5: MC1RL linked to DOTA:^152Eu (peptide)
peptide: {1‑phenylbutyric acid}-H[dF]RWGK(DOTA)-NH2
modifications: also: 152Eu chelate
notes: also called 1-Phenylbutyric acid-His(D)Phe-Arg-Trp-Gly-Lys(DOTA)-CONH2, Eu chelate
B6: MC1RL linked through D-di-Glu to DOTA:^152Eu (peptide)
peptide: {1‑phenylbutyric acid}-H[dF]RWGK([D‑di‑Glu-DOTA])-NH2
modifications: also: 152Eu chelate
notes: also called 1-Phenylbutyric acid-His(D)Phe-Arg-Trp-Gly-Lys(D-di-Glu-DOTA)-CONH2, Eu chelate

How the values were obtained:
[1] = molecular target: T1, melanocortin-1 receptor (MC1R) (UniProt Q01726 1-317, limits assumed); assay: time-resolved fluorescence (TRF) competition binding assay on Hek293/MC1R cells
T1 construct: whole, on cells; also called Hek293/MC1R cells; A375/MC1R cells
Description: (§1) Time-resolved fluorescence (TRF) competition binding assays were performed to determine binding affinities of these DOTA conjugates (FIG. 2). The TRF method takes advantage of the long fluorescence lifetime of the lanthanide Europium and can detect less than one attomole in a multiwell plate sample. Hek293/MC1R cells (Hek293 cells engineered to over-express MC1R) were used for the binding assays. Saturation TRF binding assays were performed using versions of the compounds with chelated europium to determine specific and non-specific binding (FIG. 17-20).

[2] = molecular target: T1, melanocortin-1 receptor (MC1R); assay: not stated in the sentence (binding affinity of the DOTA conjugate and its chelates)
[3] = molecular target: T1, melanocortin-1 receptor (MC1R); assay: competitive binding assay (FIG. 2)
Description: as §1

[4] = molecular target: T1, melanocortin-1 receptor (MC1R); assay: TRF saturation binding with the Eu chelate on Hek293/MC1R cells; specific = total minus nonspecific (20x MC1RL-DOTA block)
Description: The binding sequence is 1-Phenylbutyric acid-His(D)Phe-Arg-Trp-Gly-Lys(D-di-Glu-DOTA)-CONH₂. Eu is chelated into the conjugated DOTA for lanthanide-based binding assays but ²²⁵Ac, ⁶⁸Ga, or ¹¹¹In can also be chelated. […] 20×MC1Rl-DOTA was used for blocking. […] Data is the result of two repeats.
as §1

T1 sequence (Q01726 whole entry): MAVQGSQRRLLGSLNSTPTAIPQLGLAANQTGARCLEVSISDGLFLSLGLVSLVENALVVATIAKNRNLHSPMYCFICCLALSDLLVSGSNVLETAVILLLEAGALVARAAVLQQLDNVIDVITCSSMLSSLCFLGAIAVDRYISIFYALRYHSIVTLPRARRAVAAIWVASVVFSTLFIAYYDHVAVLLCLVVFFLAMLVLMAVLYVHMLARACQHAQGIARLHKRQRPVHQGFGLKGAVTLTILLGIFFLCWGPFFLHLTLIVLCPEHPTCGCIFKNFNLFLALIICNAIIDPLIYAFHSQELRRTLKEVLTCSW

Binder | Ki [1] [nM] | Kd [4] [nM] | other results
B1 | 0.24 | – | Ki [2]: 0.3 nM
B2 | 0.34 | – | –
B3 | 0.23 | – | Ki [3]: 0.2 nM
B4 | – | 0.88 | –
B5 | – | 0.69 | –
B6 | – | 0.19 | –

— patent US20180126013A1 (H LEE MOFFITT CANCER CENTER AND RESEARCH INSTITUTE, published 2018)
